One assay addresses T1, mouse Hyper-IL-6 (mouse, UniProt P22272;P08505).
T1 construct: also called murine Hyper-IL-6; Hyper-IL-6-His; not shown: His tag, C-terminal, kept
T1 chain: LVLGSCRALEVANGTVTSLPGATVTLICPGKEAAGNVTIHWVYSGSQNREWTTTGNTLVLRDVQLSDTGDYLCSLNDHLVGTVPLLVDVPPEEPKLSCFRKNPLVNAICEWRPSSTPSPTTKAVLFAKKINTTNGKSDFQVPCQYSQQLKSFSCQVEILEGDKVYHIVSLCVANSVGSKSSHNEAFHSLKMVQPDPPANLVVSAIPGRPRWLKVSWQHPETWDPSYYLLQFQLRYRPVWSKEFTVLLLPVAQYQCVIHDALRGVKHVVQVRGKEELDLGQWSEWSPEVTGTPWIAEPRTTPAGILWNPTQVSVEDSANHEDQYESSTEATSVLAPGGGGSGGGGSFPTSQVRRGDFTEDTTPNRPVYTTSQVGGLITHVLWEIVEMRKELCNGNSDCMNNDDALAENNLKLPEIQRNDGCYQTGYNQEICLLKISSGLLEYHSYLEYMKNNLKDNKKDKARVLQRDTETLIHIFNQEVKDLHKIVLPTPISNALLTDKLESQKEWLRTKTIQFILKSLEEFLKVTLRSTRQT
The assay is described as follows: ELISA; plates coated with 2 μg/mL Hyper-IL-6-His in carbonate-bicarbonate buffer pH 9.6; serial dilutions of fusion proteins from 50 nM, 1 h at 37 °C; HRP anti-human IgG. The note with it: both partners purified. On the technique in general: In an ELISA, binding on a coated surface is turned into a signal by an enzyme label.

The target of the next assay is human Hyper-IL-6 (human, UniProt P08887 20-355). The assay is described as above. The note with it: both partners purified.

The EC50 is the concentration needed to bring the measured effect to its halfway point. A high value points to a less potent agent.

B1: ACE2 (M)-Fc-mGP130 (Fc fusion)
chain: QSTIEEQAKFFLDYFNHEAEDLFYQSSLASWNYNTNITEENVQNMNNAGDKWSAFLKEQSTWAQMYPLQEIQNLTVKLQLQALQQNGSSVLSEDKSKRLNTILNTMSTIYSTGKVCNPDNPQECLLLEPGLNEIMANSLDYNERLWAWESWRSEVGKQLRPLYEEYVVLKNEMARANHYEDYGDYWRGDYEVNGVDGYDYSRGQLIEDVEHTFEEIKPLYEHLHAYVRAKLMNAYPSYISPIGCLPAHLLGDMWGQFWTNLYSLTVPFGQKPNIDVTDAMVDQAWDAQRIFKEAEKFFVSVGLPNMTQGFWEYSMLTDPGNVQKAVCHPTAWDLGKGDFRILMCTKVTMDDFLTAHHEMGHIQYDMAYAAQPFLLRNGANEGFHEAVGEIMSLSAATPKHLKSIGLLSPDFQEDNETEINFLLKQALTIVGTLPFTYMLEKWRWMVFKGEIPKDQWMKKWWEMKREIVGVVEPVPHDETYCDPASLFHVSNDYSFIRYYTRTLYQFQFQEALCQAAKHEGPLHKCDISNSTEAGQKLFNMLRLGKSEPWTLALENVVGAKNMNVRPLLNYFEPLFTWLKDQNKNSFVGWSTDWSPYADQSIKVRISLKSALGDKAYEWNDNEMYLFRSSVAYAMRQYFLKVKNQMILFGEEDVRVANLKPRISFNFFVTAPKNVSDIIPRTEVEKAIRMSRSRINDAFRLNDNSLEFLGIQPTLGPPNQPPVSGGGGSGGGGSGGGGSQLLEPCGYIYPEFPVVQRGSNFTAICVLKEACLQHYYVNASYIVWKTNHAAVPREQVTVINRTTSSVTFTDVVLPSVQLTCNILSFGQIEQNVYGVTMLSGFPPDKPTNLTCIVNEGKNMLCQWDPGRETYLETNYTLKSEWATEKFPDCQSKHGTSCMVSYMPTYYVNIEVWVEAENALGKVSSESINFDPVDKVKPTPPYNLSVTNSEELSSILKLSWVSSGLGGLLDLKSDIQYRTKDASTWIQVPLEDTMSPRTSFTVQDLKPFTEYVFRIRSIKDSGKGYWSDWSEEASGTTYEDRPSRPPSFWYKTNPSHGQEYRSVRLIWKALPLSEANGKILDYEVILTQSKSVSQTYTVTGTELTVNLTNDRYVASLAARNKVGKSAAAVLTIPSPHVTAAYSVVNLKAFPKDNLLWVEWTPPPKPVSKYILEWCVLSENAPCVEDWQQEDATVNRTHLRGRLLESKCYQITVTPVFATGPGGSESLKAYLKQAAPARGPTVRTKKVGKNEAVLAWDQIPVDDQNGFIRNYSISYRTSVGKEMVVHVDSSHTEYTLSSLSSDTLYMVRMAAYTDEGGKDGPEFTFTTPKFAQGEIE
As to B1, the 50% effective concentration (EC50) with mouse Hyper-IL-6 is 1.83 nM.

B2: ACE2 (M)-Fc-hGP130 (Fc fusion)
chain: QSTIEEQAKFFLDYFNHEAEDLFYQSSLASWNYNTNITEENVQNMNNAGDKWSAFLKEQSTWAQMYPLQEIQNLTVKLQLQALQQNGSSVLSEDKSKRLNTILNTMSTIYSTGKVCNPDNPQECLLLEPGLNEIMANSLDYNERLWAWESWRSEVGKQLRPLYEEYVVLKNEMARANHYEDYGDYWRGDYEVNGVDGYDYSRGQLIEDVEHTFEEIKPLYEHLHAYVRAKLMNAYPSYISPIGCLPAHLLGDMWGQFWTNLYSLTVPFGQKPNIDVTDAMVDQAWDAQRIFKEAEKFFVSVGLPNMTQGFWEYSMLTDPGNVQKAVCHPTAWDLGKGDFRILMCTKVTMDDFLTAHHEMGHIQYDMAYAAQPFLLRNGANEGFHEAVGEIMSLSAATPKHLKSIGLLSPDFQEDNETEINFLLKQALTIVGTLPFTYMLEKWRWMVFKGEIPKDQWMKKWWEMKREIVGVVEPVPHDETYCDPASLFHVSNDYSFIRYYTRTLYQFQFQEALCQAAKHEGPLHKCDISNSTEAGQKLFNMLRLGKSEPWTLALENVVGAKNMNVRPLLNYFEPLFTWLKDQNKNSFVGWSTDWSPYADQSIKVRISLKSALGDKAYEWNDNEMYLFRSSVAYAMRQYFLKVKNQMILFGEEDVRVANLKPRISFNFFVTAPKNVSDIIPRTEVEKAIRMSRSRINDAFRLNDNSLEFLGIQPTLGPPNQPPVSGGGGSGGGGSGGGGSELLDPCGYISPESPVVQLHSNFTAVCVLKEKCMDYFHVNANYIVWKTNHFTIPKEQYTIINRTASSVTFTDIASLNIQLTCNILTFGQLEQNVYGITIISGLPPEKPKNLSCIVNEGKKMRCEWDGGRETHLETNFTLKSEWATHKFADCKAKRDTPTSCTVDYSTVYFVNIEVWVEAENALGKVTSDHINFDPVYKVKPNPPHNLSVINSEELSSILKLTWTNPSIKSVIILKYNIQYRTKDASTWSQIPPEDTASTRSSFTVQDLKPFTEYVFRIRCMKEDGKGYWSDWSEEASGITYEDRPSKAPSFWYKIDPSHTQGYRTVQLVWKTLPPFEANGKILDYEVTLTRWKSHLQNYTVNATKLTVNLTNDRYLATLTVRNLVGKSDAAVLTIPACDFQATHPVMDLKAFPKDNMLWVEWTTPRESVKKYILEWCVLSDKAPCITDWQQEDGTVHRTYLRGNLAESKCYLITVTPVYADGPGSPESIKAYLKQAPPSKGPTVRTKKVGKNEAVLEWDQLPVDVQNGFIRNYTIFYRTIIGNETAVNVDSSHTEYTLSSLTSDTLYMVRMAAYTDEGGKDGPEFTFTTPKFAQGEIE
B2 had a half-maximal effective concentration (EC50) in the assay with human Hyper-IL-6 of 1.55 nM.

For the origin of these results see publication PMC12521702, “Development of a trispecific fusion protein based on angiotensin-converting enzyme 2, glycoprotein 130, and tumor necrosis factor receptor 2 as a promising therapeutic for COVID-19” (Molecular Biomedicine, 2025).
